The Kd is the equilibrium constant for the complex coming apart.

In this test the target is Calcineurin A subunit alone, residues 1-348 (human) (UniProt Q08209). Briefly: ITC; NFAT peptides, PALB2 or SYDE2 titrated into calcineurin in the cell; 25 °C; 20 mM Tris pH 7.5, 100 mM NaCl, 1.0 mM CaCl2, 0.5 mM TCEP; one set of sites model with n=1; averages of >=3 experiments (SYDE2: 2).

As to ESPRIEITS [NFATc1 PxIxIT peptide 116…124], the Kd was found to be 4.1 µM.

Consider DDQYLAVPQHPYQWAKPK [NFATc1 LxVP long peptide 383…400], for which the Kd was found to be 2.4 µM.

Source of the values: publication PMC5156906.
